Results from patent US12312397B2, “Anti-O2 antibodies and uses thereof” (priority 2016, dated 2025).
Where a chain is given by its changes, count along the chain named. Numbers in names are those of the source.

What was measured:
O2 LPS = assay: ELISA binding to O2 LPS; design: species or system Klebsiella pneumoniae; conditions: for binding to O2 LPS compared to parent antibody: sequence-optimized variants, FIG. 9; for binding to LPS-O2: secondary screening, ELISA
Method: The coated plates were incubated with cell culture supernatants from polyclonally stimulated lymphocytes (AMVBRA) or from monoclonal immortalized B cells (donor interrogations) containing fully human antibodies or with diluted plasma samples (PBMC donor selections) for 1 hour at room temperature. The plates were then washed with PBS containing 0.1% Tween-20 (PBS-T). Secondary antibody was added; either Alkaline Phosphatase-conjugated Goat Anti-Human IgG-AP (Southern Biotech, 2040-04, 1:1000 in PBS-B) or Peroxidase AffiniPure F(ab′)2 Fragment Goat Anti-Human IgG, Fc Fragment Specific (Jackson ImmunoResearch #309 036 098, 1:5000 in PBS-B) were used. Secondary antibodies were typically incubated for 1 h. Plates were washed three times with PBS-T, and P-NitroPhenyl Phosphate (pNPP, Sigma-Aldrich, cat #N2765-100TAB) or Sureblue (KPL, 53-00-03) substrates were added and incubated for 10 min or until the development of a colorimetric reaction. In the case of the HRP substrate Sureblue, the reaction was stopped by adding an equal volume of 0.2N HCl. The absorbance at 405 nm (pNPP) or 450 nm (Sureblue) was measured by a microplate reader (Biotek, Elx808).
The coated plates were incubated with serial dilutions of the monoclonal antibodies for 1 hour at room temperature. The plates were then washed with PBS containing 0.1% Tween-20 (PBS-T). Alkaline Phosphatase-conjugated Goat Anti-Human IgG (Southern Biotech, 2040-04, 1:1000 in PBS-B) was added. The secondary antibody reactions were incubated for 1 h. Plates were washed three times with PBS-T, and P-NitroPhenyl Phosphate (pNPP, Sigma-Aldrich, cat #N2765-100TAB) substrate was added and incubated for 30 min or until the development of a colorimetric reaction. The absorbance at 405 nm was measured by a microplate reader (Biotek, Elx808). The data was plotted with Graphpad Prism software. Representative mAbs from each class were tested for their binding to O1 LPS (FIG. 2A) and O2 LPS (FIG. 2B), and EC50 values were obtained (FIG. 2C). The majority of the anti-O2 LPS mAbs bound to both O1 and O2 LPS by ELISA. […] None of these LPS mAbs bound to the 03, 04, 05, 07, or 012 LPS serotypes (see e.g., FIG. 1A).

[1] = tested on: O1 LPS activation of NF-κB in RAW264.7-lux cells; assay: LPS neutralization assay (NF-κB luciferase, RAW264.7-lux), O1 LPS; type: cell-based, murine; conditions: human IgG1 format
Method: (§1) Activation of TLR4 receptors by bacterial LPS leads to downstream activation of the NF-κB transcriptional regulator. A decrease in induction of NF-κB-responsive luciferase activity was used to quantify LPS neutralization activity by LPS mAbs. A murine RAW264.7 macrophage cell line was engineered to carry a firefly luciferase reporter gene under the control of an NF-κB-responsive promoter (RAW264.7-lux). Serially diluted antibody stocks were mixed with LPS in a 1:1 ratio and incubated at 4° C. for 1 hr. Antibody/LPS mixtures were then diluted 1:10 into assay plates containing pre-seeded RAW264.7-lux cells (4e5 cells/well), which were then placed at 37° C. with 5% CO2 for 2.5 hours. Following incubations, Steady Glo solution (Promega) was added to each well and incubated for another 20 min protected from light. The relative light units (RLUs) were measured using a multi-mode microplate reader (Synergy 2, Biotek or envision multilabel plate reader, Perkin Elmer). The percentage of inhibition was determined by comparing RLU derived from assays with no antibodies to RLU derived from assays with anti-K. pneumoniae mAbs and assays performed with a negative control mAb. […] All mAbs were tested in human IgG1 format.

[2] = tested on: O2 LPS activation of NF-κB in RAW264.7-lux cells; assay: LPS neutralization assay (NF-κB luciferase, RAW264.7-lux), O2 LPS; type: cell-based, murine; design: key to LPS Neut O2: +++: Strongly positive activity; +: Positive activity; +/−: Somewhat positive depending upon the test conditions; conditions: for LPS Neut O2: Table 7 summary; for neutralizing activity against O2 LPS (NF-κB activation): human IgG1 format; for neutralization of LPS-O2: secondary screening
Method: as §1

[3] = tested on: K. pneumoniae 8570ΔcpsBLux (O2); assay: Opsonophagocytic killing (OPK) assay, O2 capsule mutant; type: cell-based, Klebsiella pneumoniae; design: key to D Capsule OPK O2: +++: Strongly positive activity; +: Positive activity; +/−: Somewhat positive depending upon the test conditions; conditions: for D Capsule OPK O2: capsule mutant strain 8570ΔcpsB lux (O2); for OPK activity against O2 capsule mutant: secondary screening
Method: OPK activity of anti-O2 LPS mAbs was tested against O1 and O2 strains. Briefly, log phase cultures of luminescent K. pneumoniae strains 8570ΔcpsBLux (O2) and 43816ΔcpsBLux (O1) were diluted to ˜2×10^6 cells/ml. K. pneumoniae cells, 5e5/well dimethylformamide (DMF) differentiated HL-60 cells, cleared baby rabbit serum (1:10 Cedarlane), and a series dilution of antibodies (2 ng-2.5 μg/mL) were mixed in 96-well plates and incubated at 37° C. for two hours with shaking (250 rpm). The relative light units (RLUs) were then measured using a multi-mode microplate reader (Synergy 2, Biotek or envision multilabel plate reader, Perkin Elmer). The percentage of killing was determined by comparing RLU derived from assays with no antibodies to RLU derived from assays with anti-K. pneumoniae mAbs and assays performed with a negative control mAb. Positive killing was determined where the percentage of killing is above 40%.

B1: antibody C: sequence-optimized KPN179, all frameworks germlined; VH SEQ ID NO: 188, VL SEQ ID NO: 191 (antibody, V domains shown)
VH: EVQLVESGGGLVKPGGSLRLSCAASGFTFSNAWMNWVRQAPGKGLEWVGRIKRKADGETTDYAAPVKGRFTISRDDSKNTLYLQMNSLKTEDTAVYYCTTRIVTTNDYWGQGTLVTVSS
VL: QSALTQPRSVSGSPGQSVTISCTGTSSDVGYYDYVSWYQQHPGKAPKLMIYDVNKRPSGVPDRFSGSKSGNTASLTISGLQAEDEADYYCASYAGGDTFVFGTGTKVTVL
modifications: Description of Artificial Sequence: SyntheticKPN179-FR-GL N35S-VH/KPN179-FR-GL-C105A-VL VHpolypeptide; Description of Artificial Sequence: SyntheticKPN179-FR-GL N35S-VH/KPN179-FR-GL-C105A-VL VL polypeptide
binding to O2 LPS compared to parent antibody (O2 LPS): significantly reduced binding

B2: antibody B: sequence-optimized KPN42; VH SEQ ID NO: 17, VL SEQ ID NO: 18 (antibody, V domains shown)
VH: EVQLVESGGGLVKPGGSLRLSCAASGFTFNDAWMNWVRQAPGKGLEWVGRIKKKHEGVTTDYPASVRGRFTISRDDSKNTVYLQMGRLRIEDTAIYYCTTRIVTTNDYWGQGTLVTVSS
VL: B1 VL with Y31A, T98I
modifications: Description of Artificial Sequence: SyntheticKPN42-v2016 VH polypeptide; Description of Artificial Sequence: SyntheticKPN42-v2016 VL polypeptide
binding to O2 LPS compared to parent antibody (O2 LPS): comparable binding

B3: antibody D: sequence-optimized KPN179; VH SEQ ID NO: 187, VL SEQ ID NO: 190 (antibody, V domains shown)
VH: B1 VH with A63P, P65S, I72V, L81I, V95I
VL: B1 VL
modifications: Description of Artificial Sequence: SyntheticKPN179-FR-1-2-4-GL N35S-VH/KPN179-FR-GL-C105A-VL VHpolypeptide; Description of Artificial Sequence: SyntheticKPN179-FR-1-2-4-GL N35S-VH/KPN179-FR-GL-C105A-VL VLpolypeptide
binding to O2 LPS compared to parent antibody (O2 LPS): comparable binding

B4: antibody A: sequence-optimized KPN42, all frameworks germlined; VH SEQ ID NO: 26, VL SEQ ID NO: 27 (antibody, V domains shown)
VH: B1 VH with S30N, N31D, R53K, A55H, D56E, E58V
VL: B1 VL with Y31A, T98I
modifications: Description of Artificial Sequence: SyntheticKPN42-FR-GL-VH/KPN42-FR-GL-C105A-VL VH polypeptide; Description of Artificial Sequence: SyntheticKPN42-FR-GL-VH/KPN42-FR-GL-C105A-VL VL polypeptide
binding to O2 LPS compared to parent antibody (O2 LPS): comparable binding

B5: KPS18: Class III anti-O2 antigen human mAb; VH SEQ ID NO: 98, VL SEQ ID NO: 99 (antibody, V domains shown)
VH: EVRLVESGGGLVKPGGSLRLSCAASGFTFKNAWMSWIRQAPGKGLEWVGRVKNEVDGGTIDYGVPVRGRFTISRDDSQGTLSLEMNSLREDDTGIYYCRAFWSGFPAGYWGQGTLVSVSS
VL: QSVLTQPPSLSAAPGQTVTIACSGSRSNIGSDSVSWFQQFPGTAPRVLMYDNNKRPSGISDRFSGSKSGTSVTLDITGLQTGDEADYYCATWDSSLSAYVFGSGTKVTVL
modifications: Description of Artificial Sequence: SyntheticKPS18 VH polypeptide; Description of Artificial Sequence: SyntheticKPS18 VL polypeptide
binding to LPS-O2 (O2 LPS): bound specifically | neutralizing activity against O1 LPS (NF-κB activation) [1]: no activity | LPS Neut O2 [2]: +/− | neutralizing activity against O2 LPS (NF-κB activation) [2]: moderate neutralizing activity | neutralization of LPS-O2 [2]: neutralized | D Capsule OPK O2 [3]: +++ | OPK activity against O2 capsule mutant [3]: strong OPK activity

B6: KPS3: Class III anti-O2 antigen human mAb; VH SEQ ID NO: 35, VL SEQ ID NO: 36 (antibody, V domains shown)
VH: QGQLVDSGGGVVQRGGSQRLSCAASGFSFRDYGMHWVRQAPGKGLEWVAFISYDGRDQYYADSVKGRFIISRDNSKNTLSLQMNSLRPEDTAVYYCGPFYNPSLYYPPWGHGLPVIVSS
VL: EVVLTQSPATLSLSPGERATLSCRASQSISSQLAWYQQKPGQAPRLLIHDASNRDTGVPDRFSGSGSGTDFTLTISSLEPEDFAMYYCLQRNNWPPWTFGQGTKVEIK
modifications: Description of Artificial Sequence: SyntheticKPS3 VH polypeptide; Description of Artificial Sequence: SyntheticKPS3 VL polypeptide
binding to LPS-O2 (O2 LPS): bound specifically | neutralizing activity against O1 LPS (NF-κB activation) [1]: no activity | LPS Neut O2 [2]: +/− | neutralizing activity against O2 LPS (NF-κB activation) [2]: moderate neutralizing activity | neutralization of LPS-O2 [2]: neutralized | D Capsule OPK O2 [3]: +++ | OPK activity against O2 capsule mutant [3]: strong OPK activity

B7: 6F6: Class I mouse hybridoma anti-O2 mAb (Ms IgM); VH SEQ ID NO: 80, VL SEQ ID NO: 81 (antibody, V domains shown)
VH: QVHLQQSGSELRSPGSSVKLSCKDFDSDVFPIAYMGWIRQQPGHGFDWIGDILPNIGRTIYGEKFEDKATLDADTVSNTAYLELSSLTSEDSAIYYCARRGTSGAMDYWGQGTSVTVSS
VL: DVVMTQTPLFLPVSLGDQASISCRSSQGLVHSTGNTFLHWYLQKPGQSPKLLIYKVSNRFSGVPDRFSGSGSGTDFTLKISRVEAEDLGIYFCSQSTHIPYTFGGGTKLEIK
modifications: Description of Artificial Sequence: Synthetic6F6 VH polypeptide; Description of Artificial Sequence: Synthetic6F6 VL polypeptide
D Capsule OPK O2 [3]: +
